Publication PMC6731152 (Molecular cell, 2019)

B1: ^coreAFG3L2^WB/PI (human AFG3L2 catalytic core, residues 272-797, E408Q/E575Q) (domain or fragment)
chain: not shown
B2: ^coreAFG3L2^WB/PI/Δ781−797 (domain or fragment)
chain: not shown

What was measured:
cryo-EM structure = target: the molecule itself; assay: cryo-EM structure
SEC = target: the molecule itself; assay: SEC

Protein	stoichiometry N (cryo-EM structure)	binding result (SEC)
B1	6	–
B2	–	binds
